Results from patent US20210324080A1 (JIANGSU HUAIYU PHARMACEUTICAL, published 2021).

How the values were obtained:
[1] = target: T1, human CTLA-4 (Y201V), full length, on transfected cells (human, UniProt P16410 36-223); assay: FACS, human CTLA-4 expressing cells
T1 construct: whole, on cells; also called hCTLA-4; HEK293-hCTLA-4 (Y201V)
T1 sequence (looked up): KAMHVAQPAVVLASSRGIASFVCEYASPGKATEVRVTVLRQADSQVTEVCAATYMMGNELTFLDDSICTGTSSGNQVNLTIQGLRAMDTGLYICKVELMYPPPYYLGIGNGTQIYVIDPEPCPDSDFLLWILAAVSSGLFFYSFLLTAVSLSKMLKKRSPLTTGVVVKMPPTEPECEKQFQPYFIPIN

[2] = target: T2, monkey CTLA-4, full length, on transfected HEK293 cells (monkey); assay: FACS, monkey CTLA-4 expressing cells
T2 construct: whole, on cells; also called cCTLA-4; HEK293-cCTLA-4
Source text: The pIRES plasmid with the monkey-derived CTLA-4 full-length gene was transfected into the HEK293 cell line to construct a HEK293 stable cell line containing monkey CTLA-4 (herein referred to as HEK293-cCTLA-4 stable cell line), wherein the database accession number of the monkey CTLA-4 nucleotide sequence is XM_005574014.1. The HEK293-hCTLA-4 stable cell line and HEK293-cCTLA-4 stable cell line were expanded in a T-75 cell culture flask to a 90% confluence. The medium was aspirated, and the cells were washed with HBSS buffer (Hanks Balanced Salt Solution, purchased from Invitrogen) twice, then treated with an enzyme-free cell dissociation fluid (Versene solution, purchased from Life technology) and the cells were collected. The cells were washed with HBSS buffer twice. After counted, the cells were diluted with HBSS buffer to 2×10⁶ cells per ml, added with 1% goat serum blocking solution, wherein the percentage was the mass percantage. Cells were incubated on ice for 30 minutes, then washed twice with HBSS buffer by centrifugation. The collected cells were suspended in the FACS buffer (HBSS containing 1% BSA, wherein the percentage was the mass percantage) to 2×10⁶ cells/ml, added as 100 microliters per well to a 96-well FACS reaction plate, added with 100 microliters per well of the purified CTLA-4 antibody sample to be tested, incubated on ice for 2 hours. The plate was washed twice with the FACS buffer by centrifugation, added with 100 microliters of fluorescent (Alexa 488)-labeled secondary antibodies (purchased from Invitrogen) per well, and incubated on ice for 1 hour. The plate was washed 3 times with FACS buffer by centrifugation, added with 100 μl fixative solution [4% (v/v) Paraformaldehyde] per well to suspend the cells. 10 minutes later, it was washed 2 times with FACS buffer by centrifugation. The cells were suspended with 100 microliters of FACS buffer, FACS (FACS Calibur, purchased from BD) was used for detection and the results were analyzed.

[3] = target: T3, CTLA-4-hFc (immunogen A; hFc-labeled CTLA-4 extracellular domain protein) (human, UniProt P16410 36-161); assay: blocking assay, CTLA-4 protein, competitor B7.2
T3 construct: range 36-161; Made in HEK293 cells, purified on protein A; also called CLTA-4-hFc; CTLA-4 protein; not shown: human IgG Fc fragment (hFc) of the pCpC vector
T3 sequence (looked up): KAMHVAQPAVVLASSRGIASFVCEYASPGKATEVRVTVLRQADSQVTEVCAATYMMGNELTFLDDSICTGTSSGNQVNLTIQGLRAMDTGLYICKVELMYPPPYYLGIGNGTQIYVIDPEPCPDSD
Method: (§1) CTLA-4 extracellular domain protein (CTLA-4-hFc) was diluted with PBS to a final concentration of 1.0 μg/mL, and then added to a 96-well ELISA plate as 100 μl per well. The plate was covered with a plastic film and incubated overnight at 4° C. The plate was washed twice with plate washing solution [PBS containing 0.01% (v/v) Tween 20] on the next day, and added with blocking solution [PBS containing 0.01% (v/v) Tween 20 and 1% (w/w) BSA] and blocked at room temperature for 2 hours. […] After 2 hours, the plate was washed 3 times with a plate washing solution [PBS containing 0.01% (v/v) Tween 20]. HRP (horseradish peroxidase) labeled avidin diluent (purchased from Sigma) was added 100 microliters per well, and after the plate was incubated for 2 hours at 37° C., it was washed with plate washing solution [PBS containing 0.01% (v/v) Tween 20] for 3 times. […] TMB substrate was added to each well. After incubated at room temperature for 30 minutes, the plate was added with […] stop solution (1.0N HCl) to each well. An ELISA plate reader (SpectraMax 384plus, Molecular Device) was used to read the A450 nm value.

[4] = target: T3, CTLA-4-hFc (immunogen A; hFc-labeled …); assay: blocking assay, CTLA-4 protein, competitor B7.1
Method: as §1

[5] = target: T3, CTLA-4-hFc (immunogen A; hFc-labeled …); assay: receptor-ligand blocking assay: CTLA-4 protein, antibody titrated, blocked ligand B7.1, inhibition (%)
Method: as §1

B1: 97A8D1 fully human CTLA-4 antibody (human IgG1, kappa) (antibody, V domains shown)
VH: QVQLVESGGGVVQPGRSLRLSCVASGFTFNNYGMNWVRQAPGKGLEWVAVIWYGGRNKFYADSVKGRFTISRDNSKNTLYLEMNSLRAEDTAVYYCARADWGGWFDPWGQGTLVTVSS
VL: EIVLTQSPGTLSLSPGERATLSCRASQSVSSTYLAWYQQKPGQAPRLLIHGAFSRATGIPDRFSGSGSGPDFTLTISRLEPEDFAVYYCQQYGTSPFTFGPGTKVDIK
notes: also called mAb49; mAb049
- MFI at 0.000128 nM [1]: 3
- MFI at 0.0128 nM [1]: 22
- MFI at 0.064 nM [1]: 66
- MFI at 0.32 nM [1]: 196
- MFI at 1.6 nM [1]: 580
- MFI at 8 nM [1]: 919
- MFI at 40 nM [1]: 1020
- MFI at 200 nM [1]: 1020
- MFI at 0.000128 nM [2]: 2
- MFI at 0.0128 nM [2]: 23
- MFI at 0.064 nM [2]: 67
- MFI at 0.32 nM [2]: 225
- MFI at 1.6 nM [2]: 513
- MFI at 8 nM [2]: 754
- MFI at 40 nM [2]: 910
- MFI at 200 nM [2]: 831
- % Block at 0.000128 nM [3]: 0%
- % Block at 0.0128 nM [3]: 33%
- % Block at 0.064 nM [3]: 48.4%
- % Block at 0.32 nM [3]: 84.1%
- % Block at 1.6 nM [3]: 99%
- % Block at 8 nM [3]: 99.2%
- % Block at 40 nM [3]: 99.2%
- % Block at 200 nM [3]: 99.2%
- % Block at 0.000128 nM [4]: 0%
- % Block at 0.0128 nM [4]: 6.1%
- % Block at 0.064 nM [4]: 28.7%
- % Block at 0.32 nM [4]: 67.8%
- % Block at 1.6 nM [4]: 90.6%
- % Block at 8 nM [4]: 95.2%
- % Block at 40 nM [4]: 97.2%
- % Block at 200 nM [4]: 98.4%

B2: 40C4C6 fully human CTLA-4 antibody (human IgG1, kappa) (antibody, V domains shown)
VH: QVQLVESGGGVVQPGRSLRLSCAASGFTFSSYGMHWVRQAPGKGLEWVAVIWYDGRNKYYADSVKGRFTISRDNSKNTLYLQMNSLRAEDTAVYYCARASGSYSYYFDYWGQGTLVTVSS
VL: DIQMTQSPSSLSASVGGRVTITCRASQSISSFLNWYQHELGKAPKLLIYGASSLQSGVPSRFSGSGSGTDFTLTISSLQPEDFATYYCQQTYSTPFTFGPGTKVDIK
notes: also called mAb09; mAb009
- MFI at 0.000128 nM [1]: 3
- MFI at 0.0128 nM [1]: 24
- MFI at 0.064 nM [1]: 74
- MFI at 0.32 nM [1]: 233
- MFI at 1.6 nM [1]: 553
- MFI at 8 nM [1]: 795
- MFI at 40 nM [1]: 967
- MFI at 200 nM [1]: 963
- MFI at 0.000128 nM [2]: 2
- MFI at 0.0128 nM [2]: 23
- MFI at 0.064 nM [2]: 69
- MFI at 0.32 nM [2]: 219
- MFI at 1.6 nM [2]: 421
- MFI at 8 nM [2]: 619
- MFI at 40 nM [2]: 626
- MFI at 200 nM [2]: 643
- IC50 (read off the curve) [5]: ~1 nM
- % Block at 0.000128 nM [3]: 0%
- % Block at 0.0128 nM [3]: 30%
- % Block at 0.064 nM [3]: 52.4%
- % Block at 0.32 nM [3]: 89.2%
- % Block at 1.6 nM [3]: 99.1%
- % Block at 8 nM [3]: 99.1%
- % Block at 40 nM [3]: 99.1%
- % Block at 200 nM [3]: 99.1%
- % Block at 0.000128 nM [4]: 0%
- % Block at 0.0128 nM [4]: 9.3%
- % Block at 0.064 nM [4]: 35%
- % Block at 0.32 nM [4]: 82.1%
- % Block at 1.6 nM [4]: 98.1%
- % Block at 8 nM [4]: 99.2%
- % Block at 40 nM [4]: 99.4%
- % Block at 200 nM [4]: 99.4%
